Test results from patent publication US20250121082A1 (SHANDONG BOAN BIOTECHNOLOGY, published 2025).

T1: Human CD228 protein (human, UniProt P08582 20-708, limits assumed)
T1 construct: Recombinant protein made in CHO cells, purified over a Ni column; The printed entry begins with the leader (MRGPSG...) and ends with ten His; also called hCD228; CD228-His protein
T1 sequence: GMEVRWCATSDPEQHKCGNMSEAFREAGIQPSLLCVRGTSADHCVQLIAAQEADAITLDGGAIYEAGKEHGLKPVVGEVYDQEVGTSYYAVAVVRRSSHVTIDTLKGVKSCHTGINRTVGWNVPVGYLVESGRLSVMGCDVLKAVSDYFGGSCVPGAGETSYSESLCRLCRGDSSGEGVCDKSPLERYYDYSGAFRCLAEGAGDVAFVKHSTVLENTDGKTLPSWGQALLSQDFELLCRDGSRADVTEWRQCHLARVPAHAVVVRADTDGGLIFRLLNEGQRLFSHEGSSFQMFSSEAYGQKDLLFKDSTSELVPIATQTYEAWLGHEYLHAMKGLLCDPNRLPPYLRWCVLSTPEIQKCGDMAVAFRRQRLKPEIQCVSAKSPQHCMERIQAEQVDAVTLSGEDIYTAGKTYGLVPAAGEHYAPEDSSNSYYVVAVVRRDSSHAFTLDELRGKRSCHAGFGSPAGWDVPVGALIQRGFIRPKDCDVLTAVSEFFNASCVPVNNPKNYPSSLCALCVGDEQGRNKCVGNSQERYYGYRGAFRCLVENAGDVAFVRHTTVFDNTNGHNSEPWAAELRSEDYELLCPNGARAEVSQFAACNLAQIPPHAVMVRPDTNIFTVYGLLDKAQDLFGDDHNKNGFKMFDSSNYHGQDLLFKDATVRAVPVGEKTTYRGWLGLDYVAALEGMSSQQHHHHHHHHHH

T2: CD228 protein on human melanoma SK-MEL-5 cells (human, UniProt P08582 20-709)
T2 construct: whole, on cells; Endogenous CD228 on the cell line; also called SK-MEL-5 cells (expressing CD228 proteins)
T2 sequence (looked up): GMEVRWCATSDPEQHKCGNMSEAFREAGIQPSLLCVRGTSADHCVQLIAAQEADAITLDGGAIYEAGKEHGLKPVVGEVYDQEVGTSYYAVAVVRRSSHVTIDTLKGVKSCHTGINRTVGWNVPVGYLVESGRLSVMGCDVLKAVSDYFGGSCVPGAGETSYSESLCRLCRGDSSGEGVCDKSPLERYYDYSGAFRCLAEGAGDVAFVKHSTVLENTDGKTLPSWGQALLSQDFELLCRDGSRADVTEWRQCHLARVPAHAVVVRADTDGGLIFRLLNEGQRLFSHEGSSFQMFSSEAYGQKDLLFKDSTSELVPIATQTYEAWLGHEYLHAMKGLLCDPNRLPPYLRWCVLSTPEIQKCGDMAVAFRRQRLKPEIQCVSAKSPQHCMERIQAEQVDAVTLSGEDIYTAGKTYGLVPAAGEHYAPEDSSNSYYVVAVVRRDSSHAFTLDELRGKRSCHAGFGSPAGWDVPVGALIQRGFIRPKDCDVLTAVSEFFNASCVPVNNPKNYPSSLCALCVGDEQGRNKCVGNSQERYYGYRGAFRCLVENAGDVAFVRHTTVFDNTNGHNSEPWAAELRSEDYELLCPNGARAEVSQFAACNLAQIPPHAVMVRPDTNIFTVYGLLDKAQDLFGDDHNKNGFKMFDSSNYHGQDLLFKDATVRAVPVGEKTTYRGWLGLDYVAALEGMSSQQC


Columns and labels:
[1] = molecular target: T1, Human CD228 protein; assay: Octet competition on His-chip CD228; competitor: CA67
Experimental: (§1) CD228 proteins were immobilized on His chips at 10 μg/mL with a threshold of 0.5 nm. The first CD228 antibody (30 μg/mL) was immobilized, and the competitive binding of the second CD228 antibody (30 μg/mL) was analyzed. The Octet 8K system was used to analyze the response of antibody 2 and to determine whether antibody 1 and antibody 2 were in competition.

[2] = molecular target: T1, Human CD228 protein; assay: Octet competition on His-chip CD228; competitor: hl49
Experimental: as §1

[3] = molecular target: T1, Human CD228 protein; assay: Octet competition on His-chip CD228; competitor: CA67; remark: listed apart in the source
Experimental: as §1
(§2) The final competition analysis was conducted using the following calculation method: 1—response value/blank value.

[4] = molecular target: T1, Human CD228 protein; assay: Octet competition on His-chip CD228; competitor: hl49; remark: listed apart in the source
Experimental: as §1, §2

[5] = molecular target: T1, Human CD228 protein; assay: Octet competition on His-chip CD228; competitor: CA185
Experimental: as §1

[6] = molecular target: T1, Human CD228 protein; assay: Octet competition on His-chip CD228; competitor: BA352
Experimental: as §1, §2

[7] = molecular target: T1, Human CD228 protein; assay: Octet competition on His-chip CD228; competitor: CA149
Experimental: as §1, §2

[8] = molecular target: T1, Human CD228 protein; assay: Octet competition on His-chip CD228; competitor: CA185; remark: listed apart in the source
Experimental: as §1, §2

[9] = molecular target: T1, Human CD228 protein; assay: Octet competition on His-chip CD228; competitor: CA518
Experimental: as §1, §2

[10] = molecular target: T2, CD228 protein on human melanoma …; assay: flow cytometry on SK-MEL-5 cells, fluorescent secondary antibody, MFI
Experimental: To a 96-well round-bottom plate, human melanoma SK-MEL-5 cells (ATCC, HTB-70) were added with a cell density of 7E4 cells/50 μL/well. The antibodies were serially diluted with an FACS buffer (PBS, Boster Biological Technology, Catalog No. PYG0021) and added to the 96-well round-bottom plate at 50 μL/well. The plate was then incubated at 4° C. for 1 h. The supernatant was discarded after centrifugation at 400 g for 4 min. The plate was washed once with FACS buffer, before a fluorescent secondary antibody (Jackson, 109545-008) at 100 μL/well was added. The mixture was incubated at 4° C. in the dark for 30 min and centrifuged at 400 g for 4 min. The supernatant was discarded. The cells were washed once with FACS buffer, resuspended in FACS buffer at 100 μL/well, and loaded on a flow cytometer (ACEA Pharma, NovoCyte 2060) for analysis. […] The isotype reference antibody in FIG. 4 is an irrelevant antibody targeting other antigens with constant regions similar to the experimental anti-CD228 antibodies but with different variable regions.

Octet response value [1] | Octet response value [2] | competition (1-response value/blank value) [3] [%] | competition (1-response value/blank value) [4] [%] | Octet response value [5] | competition (1-response value/blank value) [6] [%] | competition (1-response value/blank value) [7] [%] | competition (1-response value/blank value) [8] [%] | competition (1-response value/blank value) [9] [%] | EC50 [10] [µg/mL] | Binder
0.456 | 0.0169 | -7 | 95 | 0.432 | 55 | -6 | -5 | -3 | 0.195 | reference antibody hL49 (antibody, human IgG1, kappa, V domains shown, also called H149; hL49 analogy) VH: QVQLQESGPGLVKPSETLSLTCTVSGDSITSGYWNWIRQPPGKGLEYIGYISDSGITYYNPSLKSRVTISRDTSKNQYSLKLSSVTAADTAVYYCARRTLATYYAMDYWGQGTLVTVSS VL: DFVMTQSPLSLPVTLGQPASISCRASQSLVHSDGNTYLHWYQQRPGQSPRLLIYRVSNRFSGVPDRFSGSGSGTDFTLKISRVEAEDVGVYYCSQSTHVPPTFGQGTKLEIKR
0.0087 | 0.348 | 98 | 0 | 0.0102 | -12 | 99 | 98 | 98 | 0.135 | CA149 (antibody, human IgG1, kappa, V domains shown, Intact IgG1; also called CA149 antibody) VH: EVQLVESGGGVVQPGRSLRLSCAASGFTFSSYAMHWVRQAPGKGLEWVAVISFDGSNKYYTDSVKGRFTISRDNSKNTLYLQMNSLRAEDTAVYYCAREVPYYYGSGPFDYWGQGTLVTVSS VL: EIVLTQSPATLSVSPGERATLSCRASQSVSSNLAWYQQKPGQAPRHLIDGASSRASGIPDRFSGSGSGTDFTLTISRLEPEDFAVYYCQQYGSSPPFTFGPGTKVDIKR
0.0028 | 0.356 | 99 | -3 | 0.0055 | -17 | 98 | 99 | 99 | 0.123 | CA185 (antibody, human IgG1, kappa, V domains shown, Intact IgG1) VH: EVQLVESGGGVVQPGRSLRLSCAASGFTFSSYAMHWVRQAPGKGLEWVAVISYDGSNKYYADSVKGRFTISRDNSKNTLYLQMNSLRAEDTAVYYCAREVPYYYGSGPFDYWGQGTLVTVSS VL: EIVLTQSPGTLSLSPGERATLSCRASQSVSSSSLAWYQQKPGQAPRHLIDGASSRASGIPDRFSGSGSGTDFTLTISRLEPEDFAVYYCQQYGSSYTFGQGTKVDIKR
0.443 | 0.0006 | -4 | 100 | 0.426 | 94 | -2 | -3 | -4 | 0.152 | BA352 (antibody, human IgG1, kappa, V domains shown, Intact IgG1) VH: EVQLVESGGGVVQPGRSLRLSCAASGFTFSSYAMHWVRQAPGKGLEWVAVISYDGSNKYYADSVKGRFTISRDNSKNTLYLQMNSLRAEDTAVYYCARGPYLAAAGTALTFDIWGQGTMVTVSS VL: DIQMTQSPSAMSASVGDRVTITCRASQGINNYLAWFQQKPGKVPKRLIYAASSLQSGVPSRFSGSGSGTEFTLTISSLQPEDFATYYCLQHNSYPFTFGPGTKVDIKR
-0.0021 | 0.353 | 100 | -2 | -0.0061 | -9 | 101 | 101 | 102 | 0.083 | CA13 (antibody, human IgG1, kappa, V domains shown, Intact IgG1 from fully human antibody-transgenic mice) VH: EVQLVESGGGVVQPGRSLRLSCAASGFTFSSYAMHWVRQAPGKGLEWVAVISYDGSNKYYADSVKGRFTISRDNSKNTLFLQMNSLRAEDTAVYYCARDVYHYGSRSPYYYGMDVWGQGTTVTVSS VL: DIVMTQSPSSLSASVGDRVTITCRASQGISNYLAWFQQKPGKVPKLLIYAASTLQSGVPSRFSGSGSGTDFTLTISSLQPEDVATYYCQKYNSAPFTFGPGTKVDIKR
0.0039 | 0.281 | 99 | 19 | -0.0043 | -5 | 101 | 101 | 101 | 0.081 | CA518 (antibody, human IgG1, kappa, V domains shown, Intact IgG1) VH: EVQLVESGGGVVQPGRSLRLSCAASGFTFSSYAMHWVRQAPGKGLEWVAVISYDGSNKYHADSVKGRFTISRDNSKNTLFLQMNSLRAEDTAVYYCVRDVYHYGSRSPYYYGMDVWGQGTTVTVSS VL: DIQMTQSPSSVSASVGDRVTITCRASQGISSWLAWYQQKPGKAPKLLIYAASSLQSGVPSRFSGSGSGTDFTLTISSLQPEDVATYYCQKYNSAPFTFGPGTKVDIKR
-0.007 | 0.33 | 102 | 5 | -0.0132 | -8 | 103 | 103 | 103 | 0.096 | CA67 (antibody, human IgG1, kappa, V domains shown, Intact IgG1) VH: EVQLVESGGGVVQPGRSLRLSCAASGFTFSSYAMHWVRQAPGKGLEWVAVISYDGSNKYYADSVKGRFTISRDNSKNTLYLQMNSLRAEDTAVYYCARDVYHYGSRSPYYYGMDVWGQGTTVTVSS VL: DIQMTQSPSSLSASVGDRVTITCRASQAISNYLAWYQQKPGKVPKLLIYAASTLHPGVPSRFSGSGSGTDFTLTISSLQPEDVATYYCQKYNSAPFTFGPGTKVDIKR
